Test system: Escherichia coli TOP10
Experiment: shrunken log2 fold change of peptide-encoding DNA abundance (4.5 h post-induction vs induction); higher = less antimicrobial activity (less host growth inhibition)
Conditions: time post-induction: 4.5 h; library: site-saturation at positions 5, 18, 19, 20
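Also: peptides expressed intracellularly from a pBAD plasmid library in pooled LB shake-flask culture, induced with 0.3% L-arabinose, DNA abundance read by NGS, three biological replicates, DESeq2 with apeglm shrinkage.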

| Sequence | shrunken log2 fold change |
| --- | --- |
| RRIRVRPPRLPRPRPRPKTIPRP | -0.26 |
| RRIRKRPPRLPRPRPRPALWPRP | 0.27 |
| RRIRTRPPRLPRPRPRPSKHPRP | -0.351 |
| RRIRNRPPRLPRPRPRPSSHPRP | -0.0939 |
| RRIRPRPPRLPRPRPRPQVLPRP | -0.208 |
| RRIRKRPPRLPRPRPRPRRPPRP | 0.544 |
| RRIRDRPPRLPRPRPRPCCWPRP | 0.582 |
| RRIRQRPPRLPRPRPRPESTPRP | -0.0105 |
| RRIRPRPPRLPRPRPRPLCIPRP | -0.403 |
| RRIRERPPRLPRPRPRPTNDPRP | 0.127 |
| RRIRERPPRLPRPRPRPFYCPRP | 0.0826 |
| RRIRARPPRLPRPRPRPEGGPRP | 0.872 |
| RRIRPRPPRLPRPRPRPDEMPRP | 0.377 |
| RRIRRRPPRLPRPRPRPAFRPRP | 0.311 |
| RRIRTRPPRLPRPRPRPEPAPRP | 0.763 |
| RRIRYRPPRLPRPRPRPAFLPRP | -0.365 |
| RRIRTRPPRLPRPRPRPASPPRP | 0.209 |
| RRIRWRPPRLPRPRPRPYHTPRP | -0.816 |
| RRIRPRPPRLPRPRPRPNANPRP | 0.0132 |
| RRIRTRPPRLPRPRPRPRMTPRP | 0.146 |
| RRIRYRPPRLPRPRPRPFAIPRP | -0.158 |
| RRIRPRPPRLPRPRPRPCYTPRP | -0.531 |
| RRIRKRPPRLPRPRPRPDQMPRP | -0.0646 |
| RRIRGRPPRLPRPRPRPMLSPRP | 0.393 |
| RRIRFRPPRLPRPRPRPGKIPRP | -0.024 |

| Sequence | shrunken log2 fold change |
| --- | --- |
| RRIRMRPPRLPRPRPRPMSCPRP | 0.0466 |
| RRIRKRPPRLPRPRPRPWYGPRP | -0.188 |
| RRIRWRPPRLPRPRPRPKNSPRP | 0.318 |
| RRIRDRPPRLPRPRPRPICYPRP | 0.204 |
| RRIRYRPPRLPRPRPRPCIIPRP | -1.51 |
| RRIRQRPPRLPRPRPRPTNEPRP | -0.395 |
| RRIRLRPPRLPRPRPRPKDNPRP | -0.303 |
| RRIRWRPPRLPRPRPRPDFPPRP | -0.0386 |
| RRIRPRPPRLPRPRPRPRKWPRP | 0.671 |
| RRIRPRPPRLPRPRPRPQMLPRP | 0.0602 |
| RRIRGRPPRLPRPRPRPGNSPRP | 0.131 |
| RRIRKRPPRLPRPRPRPCPEPRP | 0.196 |
| RRIRMRPPRLPRPRPRPPSNPRP | 0.104 |
| RRIRQRPPRLPRPRPRPKSDPRP | -0.2 |
| RRIRKRPPRLPRPRPRPIYPPRP | -0.0542 |
| RRIRWRPPRLPRPRPRPSPMPRP | -0.108 |
| RRIRGRPPRLPRPRPRPHYHPRP | -0.421 |
| RRIRNRPPRLPRPRPRPGQKPRP | -0.000842 |
| RRIRQRPPRLPRPRPRPDTWPRP | -0.197 |
| RRIRLRPPRLPRPRPRPQSTPRP | -0.0595 |
| RRIRGRPPRLPRPRPRPHHDPRP | -0.102 |
| RRIRMRPPRLPRPRPRPMANPRP | 0.356 |
| RRIRTRPPRLPRPRPRPLMTPRP | 0.0717 |
| RRIRGRPPRLPRPRPRPKDTPRP | 0.61 |
| RRIRRRPPRLPRPRPRPRTLPRP | 0.311 |

| Sequence | shrunken log2 fold change |
| --- | --- |
| RRIRMRPPRLPRPRPRPMRTPRP | 0.502 |
| RRIRYRPPRLPRPRPRPLVEPRP | -0.234 |
| RRIRWRPPRLPRPRPRPPYDPRP | -0.0917 |
| RRIRTRPPRLPRPRPRPDPTPRP | -0.0451 |
| RRIRQRPPRLPRPRPRPKNQPRP | -0.214 |
| RRIRRRPPRLPRPRPRPWCCPRP | -0.0571 |
| RRIRPRPPRLPRPRPRPDIFPRP | 0.0196 |
| RRIRPRPPRLPRPRPRPEAMPRP | 0.0142 |
| RRIRWRPPRLPRPRPRPDNRPRP | -0.213 |
| RRIRRRPPRLPRPRPRPEYIPRP | -0.199 |
| RRIRKRPPRLPRPRPRPYKRPRP | -0.338 |
| RRIRMRPPRLPRPRPRPWHMPRP | 0.00487 |
| RRIRMRPPRLPRPRPRPLCCPRP | 0.104 |
| RRIRSRPPRLPRPRPRPWPQPRP | 0.0548 |
| RRIRFRPPRLPRPRPRPFHRPRP | -0.0134 |
| RRIRYRPPRLPRPRPRPNICPRP | -0.204 |
| RRIRYRPPRLPRPRPRPYVDPRP | -0.0075 |
| RRIRYRPPRLPRPRPRPFKYPRP | -0.689 |
| RRIRGRPPRLPRPRPRPAAVPRP | 1.51 |
| RRIRNRPPRLPRPRPRPNNLPRP | -0.202 |
| RRIRPRPPRLPRPRPRPYTRPRP | -0.853 |
| RRIRERPPRLPRPRPRPQIMPRP | -0.398 |
| RRIRARPPRLPRPRPRPFYDPRP | 0.314 |
| RRIRPRPPRLPRPRPRPLRGPRP | 0.792 |
| RRIRWRPPRLPRPRPRPNLHPRP | -0.269 |

| Sequence | shrunken log2 fold change |
| --- | --- |
| RRIRSRPPRLPRPRPRPHDLPRP | 0.0653 |
| RRIRGRPPRLPRPRPRPRLMPRP | 0.617 |
| RRIRPRPPRLPRPRPRPPWYPRP | -0.195 |
| RRIRFRPPRLPRPRPRPDHPPRP | -0.593 |
| RRIRGRPPRLPRPRPRPGQFPRP | -0.00612 |
| RRIRTRPPRLPRPRPRPYGMPRP | -0.0576 |
| RRIRCRPPRLPRPRPRPYVPPRP | -0.323 |
| RRIRMRPPRLPRPRPRPVDTPRP | 0.361 |
| RRIRKRPPRLPRPRPRPQGTPRP | -0.0539 |
| RRIRIRPPRLPRPRPRPNSLPRP | -0.457 |
| RRIRNRPPRLPRPRPRPDKQPRP | 0.00349 |
| RRIRRRPPRLPRPRPRPGGKPRP | 0.0881 |
| RRIRTRPPRLPRPRPRPLQPPRP | 0.161 |
| RRIRIRPPRLPRPRPRPAWFPRP | -0.00823 |
| RRIRLRPPRLPRPRPRPHIYPRP | -0.297 |
| RRIRERPPRLPRPRPRPEDPPRP | -0.134 |
| RRIRVRPPRLPRPRPRPGREPRP | -0.00937 |
| RRIRFRPPRLPRPRPRPAAGPRP | 0.333 |
| RRIRPRPPRLPRPRPRPKVMPRP | 0.294 |
| RRIRPRPPRLPRPRPRPFFCPRP | 0.0262 |
| RRIRRRPPRLPRPRPRPRPRPRP | 0.86 |
| RRIRSRPPRLPRPRPRPCHKPRP | -1.16 |
| RRIRVRPPRLPRPRPRPPAWPRP | 0.498 |
| RRIRLRPPRLPRPRPRPGLLPRP | 0.0272 |
| RRIRKRPPRLPRPRPRPCMFPRP | -0.167 |

| Sequence | shrunken log2 fold change |
| --- | --- |
| RRIRMRPPRLPRPRPRPLDNPRP | 0.957 |
| RRIRIRPPRLPRPRPRPRACPRP | -0.148 |
| RRIRLRPPRLPRPRPRPGFNPRP | -0.0341 |
| RRIRGRPPRLPRPRPRPCRTPRP | 0.225 |
| RRIRARPPRLPRPRPRPHEEPRP | 0.793 |
| RRIRARPPRLPRPRPRPWNWPRP | 0.376 |
| RRIRLRPPRLPRPRPRPPERPRP | 0.566 |
| RRIRSRPPRLPRPRPRPSAHPRP | 0.0639 |
| RRIRVRPPRLPRPRPRPWIGPRP | -0.166 |
| RRIRCRPPRLPRPRPRPVHCPRP | 0.0148 |
| RRIRQRPPRLPRPRPRPQPFPRP | -0.0492 |
| RRIRTRPPRLPRPRPRPIVWPRP | -0.0862 |
| RRIRARPPRLPRPRPRPICMPRP | 0.055 |
| RRIRKRPPRLPRPRPRPRKVPRP | 0.596 |
| RRIRRRPPRLPRPRPRPNEYPRP | -0.123 |
| RRIRVRPPRLPRPRPRPCWDPRP | -0.154 |
| RRIRHRPPRLPRPRPRPELQPRP | 0.07 |
| RRIRSRPPRLPRPRPRPNVLPRP | 0.105 |
| RRIRLRPPRLPRPRPRPQSPPRP | -0.0515 |
| RRIRSRPPRLPRPRPRPPIYPRP | -0.0803 |
| RRIRNRPPRLPRPRPRPRRVPRP | 0.551 |
| RRIRVRPPRLPRPRPRPYPEPRP | 1.13 |
| RRIRIRPPRLPRPRPRPLSPPRP | 1.35 |
| RRIRLRPPRLPRPRPRPQMTPRP | -0.0928 |
| RRIRTRPPRLPRPRPRPQHLPRP | -0.0898 |

| Sequence | shrunken log2 fold change |
| --- | --- |
| RRIRNRPPRLPRPRPRPSTAPRP | -0.28 |
| RRIRWRPPRLPRPRPRPQFMPRP | -0.155 |
| RRIRWRPPRLPRPRPRPYYFPRP | -0.692 |
| RRIRDRPPRLPRPRPRPYKRPRP | 0.000522 |
| RRIRWRPPRLPRPRPRPSWVPRP | 0.0566 |
| RRIRVRPPRLPRPRPRPSTHPRP | -0.573 |
| RRIRNRPPRLPRPRPRPFFCPRP | 0.118 |
| RRIRCRPPRLPRPRPRPDQCPRP | -0.00126 |
| RRIRPRPPRLPRPRPRPHNWPRP | 0.0255 |
| RRIRFRPPRLPRPRPRPLYGPRP | -0.303 |
| RRIRHRPPRLPRPRPRPMFTPRP | -0.102 |
| RRIRIRPPRLPRPRPRPYVDPRP | -0.0276 |
| RRIRDRPPRLPRPRPRPCRVPRP | 0.0479 |
| RRIRPRPPRLPRPRPRPKMEPRP | -0.0537 |
| RRIRRRPPRLPRPRPRPNRPPRP | 0.198 |
| RRIRFRPPRLPRPRPRPHMYPRP | -1.28 |
| RRIRPRPPRLPRPRPRPQYLPRP | -0.769 |
| RRIRNRPPRLPRPRPRPLPVPRP | 0.437 |
| RRIRRRPPRLPRPRPRPFMWPRP | 0.00755 |
| RRIRARPPRLPRPRPRPVGHPRP | 0.189 |
| RRIRSRPPRLPRPRPRPAACPRP | 0.222 |
| RRIRKRPPRLPRPRPRPNFSPRP | -0.084 |
| RRIRPRPPRLPRPRPRPRDSPRP | 0.334 |
| RRIRHRPPRLPRPRPRPSEVPRP | -0.277 |
| RRIRVRPPRLPRPRPRPHIKPRP | -0.389 |

— the supplement of paper PMC9112550, “Optimization of the antimicrobial peptide Bac7 by deep mutational scanning” (BMC Biology, 2022)
